Data: PMC10281804, “The structural basis of the talin–KANK1 interaction that coordinates the actin and microtubule cytoskeletons at focal adhesions” (Open Biology, 2023)

Biological target: T1, Mouse talin-1 R7R8 (mouse, UniProt P26039 1359-1659)
T1 construct: talin-1, mouse, rod domains R7 and R8 (R7R8 double domain module); 15N-labelled for the NMR experiments; also called talin R7R8; R7R8 module; source: expressed and purified as described previously [9]
Assay: fluorescence polarisation; BODIPY-TMR coupled peptide at 0.5 µM in PBS pH 7.4, 5 mM TCEP, 0.05% Triton X-100; one-site total and nonspecific binding model
Details: both partners purified

T1 sequence (P26039 1359-1659): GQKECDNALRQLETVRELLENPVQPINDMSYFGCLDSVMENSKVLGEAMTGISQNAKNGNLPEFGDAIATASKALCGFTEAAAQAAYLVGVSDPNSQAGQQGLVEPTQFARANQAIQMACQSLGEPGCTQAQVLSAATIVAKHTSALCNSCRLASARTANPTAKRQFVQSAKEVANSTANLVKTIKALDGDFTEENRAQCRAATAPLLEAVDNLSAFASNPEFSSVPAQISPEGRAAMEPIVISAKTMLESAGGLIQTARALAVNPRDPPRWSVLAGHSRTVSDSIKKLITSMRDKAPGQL

- Kd: 1200 nM
B1: KANK1 KN motif peptide (for FP), BODIPY-TMR coupled (peptide)
peptide: PYFVETPYGFQLDLDFVKYVDDIQKGNTIKKC
modifications: BODIPY-TMR coupled
notes: KANK1 KN motif, mouse residues 30-60; extra C-terminal cysteine printed beyond the stated limits 30-60; also called WT-KANK1; source: synthetic peptide, bought: GLBiochem (Shanghai)
